Experiments:
[1] = target: T1, CNNM2-H523K/S269P (mouse) (UniProt Q3TWN3)
T1 sequence: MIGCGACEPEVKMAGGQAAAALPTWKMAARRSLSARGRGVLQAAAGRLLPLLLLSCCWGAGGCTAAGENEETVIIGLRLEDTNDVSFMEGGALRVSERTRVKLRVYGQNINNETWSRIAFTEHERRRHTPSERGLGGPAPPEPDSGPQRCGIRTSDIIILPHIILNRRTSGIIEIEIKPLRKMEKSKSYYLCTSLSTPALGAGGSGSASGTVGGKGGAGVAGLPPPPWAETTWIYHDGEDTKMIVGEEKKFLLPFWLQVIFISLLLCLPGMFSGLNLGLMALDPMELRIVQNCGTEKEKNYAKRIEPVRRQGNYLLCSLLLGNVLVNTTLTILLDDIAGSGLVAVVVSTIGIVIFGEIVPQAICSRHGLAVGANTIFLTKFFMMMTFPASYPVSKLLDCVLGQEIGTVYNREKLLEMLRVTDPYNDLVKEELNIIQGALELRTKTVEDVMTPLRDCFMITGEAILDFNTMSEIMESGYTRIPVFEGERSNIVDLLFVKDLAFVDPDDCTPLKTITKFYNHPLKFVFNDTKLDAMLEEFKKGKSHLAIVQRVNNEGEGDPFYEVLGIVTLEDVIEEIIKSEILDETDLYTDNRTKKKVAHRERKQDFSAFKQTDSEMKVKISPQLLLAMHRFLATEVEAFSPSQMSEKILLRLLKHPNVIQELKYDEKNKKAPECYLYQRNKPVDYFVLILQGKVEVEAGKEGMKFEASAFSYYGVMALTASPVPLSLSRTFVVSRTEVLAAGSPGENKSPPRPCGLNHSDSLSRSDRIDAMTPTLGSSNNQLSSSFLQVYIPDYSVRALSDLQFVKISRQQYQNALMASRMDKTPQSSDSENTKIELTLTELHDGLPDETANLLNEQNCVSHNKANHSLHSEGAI

CNNM2-S269P (mouse) = target: T2, CNNM2-S269P (mouse) (UniProt Q3TWN3)
T2 sequence: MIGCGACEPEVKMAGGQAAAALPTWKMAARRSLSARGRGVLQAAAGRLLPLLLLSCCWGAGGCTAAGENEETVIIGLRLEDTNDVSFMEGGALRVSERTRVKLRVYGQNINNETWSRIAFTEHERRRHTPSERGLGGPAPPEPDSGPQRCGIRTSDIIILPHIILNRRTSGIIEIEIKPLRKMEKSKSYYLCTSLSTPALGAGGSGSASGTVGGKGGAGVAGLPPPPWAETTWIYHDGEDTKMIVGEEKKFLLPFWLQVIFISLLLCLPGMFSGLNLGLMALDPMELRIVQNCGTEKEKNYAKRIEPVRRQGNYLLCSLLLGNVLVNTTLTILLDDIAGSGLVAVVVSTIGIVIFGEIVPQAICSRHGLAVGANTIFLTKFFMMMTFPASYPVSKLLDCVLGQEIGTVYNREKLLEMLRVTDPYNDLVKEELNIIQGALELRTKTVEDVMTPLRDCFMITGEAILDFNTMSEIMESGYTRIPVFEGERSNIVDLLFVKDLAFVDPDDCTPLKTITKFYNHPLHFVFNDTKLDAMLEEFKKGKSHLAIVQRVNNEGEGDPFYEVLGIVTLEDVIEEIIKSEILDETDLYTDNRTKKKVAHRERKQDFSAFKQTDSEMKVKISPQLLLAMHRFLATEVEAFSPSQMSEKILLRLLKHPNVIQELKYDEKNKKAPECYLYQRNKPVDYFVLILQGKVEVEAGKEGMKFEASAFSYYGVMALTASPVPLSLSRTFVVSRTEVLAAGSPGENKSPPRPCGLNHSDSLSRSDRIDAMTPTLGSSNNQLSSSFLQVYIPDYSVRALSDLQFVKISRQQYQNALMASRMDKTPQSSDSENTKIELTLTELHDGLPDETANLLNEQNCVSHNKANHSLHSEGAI

[2] = target: T3, FLAG-tagged CNNM2 lacking the CBS-pair domain, CNNM2-ΔCBS(469–578) (mouse) (UniProt Q3TWN3)
T3 sequence: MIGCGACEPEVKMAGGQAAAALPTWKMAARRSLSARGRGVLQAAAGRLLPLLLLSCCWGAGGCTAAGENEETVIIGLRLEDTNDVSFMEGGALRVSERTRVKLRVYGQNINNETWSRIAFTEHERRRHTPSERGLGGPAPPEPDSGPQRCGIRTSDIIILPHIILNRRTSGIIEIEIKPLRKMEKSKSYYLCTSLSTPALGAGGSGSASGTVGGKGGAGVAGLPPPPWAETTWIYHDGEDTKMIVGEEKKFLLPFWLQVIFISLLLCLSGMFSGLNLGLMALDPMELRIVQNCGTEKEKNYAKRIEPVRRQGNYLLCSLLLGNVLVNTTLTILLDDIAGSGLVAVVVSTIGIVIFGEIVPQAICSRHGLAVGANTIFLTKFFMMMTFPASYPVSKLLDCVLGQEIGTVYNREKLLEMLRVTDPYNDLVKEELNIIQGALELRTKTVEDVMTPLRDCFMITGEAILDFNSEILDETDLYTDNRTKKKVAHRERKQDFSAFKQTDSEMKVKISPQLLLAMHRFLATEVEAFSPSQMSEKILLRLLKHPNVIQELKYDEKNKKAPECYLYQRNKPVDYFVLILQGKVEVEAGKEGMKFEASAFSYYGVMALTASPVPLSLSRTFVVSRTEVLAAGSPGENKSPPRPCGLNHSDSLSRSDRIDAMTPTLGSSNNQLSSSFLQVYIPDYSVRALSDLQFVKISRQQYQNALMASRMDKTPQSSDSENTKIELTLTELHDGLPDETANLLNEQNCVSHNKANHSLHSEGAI

B1: Myc-DDK tagged ARL15 (natural protein)
chain: MSDLRITEAFLYMDYLCFRALCCKGPPPARPEYDLVCIGLTGSGKTSLLSKLCSESPDNVVSTTGFSIKAVPFQNAILNVKELGGADNIRKYWSRYYQGSQGVIFVLDSASSEDDLEAARNELHSALQHPQLCTLPFLILANHQDKPAARSVQEIKKYFELEPLARGKRWILQPCSLDDMDALKDSFSQLINLLEEKDHEAVRM
Work on B1 yielded an outward TRPM7 current density at +100 mV in 293-M7-ΔCNNM3/4 cells with CNNM2-H523K/S269P, without vs with ARL15 (the value is with ARL15); not different [1] of 294, an outward TRPM7 current density at +100 mV in 293-M7-ΔCNNM3/4 cells with CNNM2-S269P, without vs with ARL15 (the value is with ARL15); marked reduction (CNNM2-S269P (mouse)) of 123 and an outward TRPM7 current density at +100 mV in 293-M7-ΔCNNM3/4 cells with CNNM2-ΔCBS, without vs with ARL15 (the value is with ARL15); not different [2] of 330.

From paper PMC12547303
